Data from patent US20250059280A1 (AbbVie / Abbott, published 2025).

Legend:
[1] = target: T1, human programmed death receptor 1 (PD-1) (human, UniProt Q15116 25-288); experiment: in vitro PD-1 receptor saturation on CD8+ T cells, flow cytometry, whole blood, Emax model fit
T1 construct: whole, on cells; Endogenous PD-1 on T cells of donors or study subjects; also called PD-1 receptor

[2] = target: T1, human programmed death receptor 1 (PD-1); experiment: ratio of in vitro PD-1 receptor saturation EC50 values on CD8+ T cells, reference mAb2

T1 sequence (Q15116 25-288): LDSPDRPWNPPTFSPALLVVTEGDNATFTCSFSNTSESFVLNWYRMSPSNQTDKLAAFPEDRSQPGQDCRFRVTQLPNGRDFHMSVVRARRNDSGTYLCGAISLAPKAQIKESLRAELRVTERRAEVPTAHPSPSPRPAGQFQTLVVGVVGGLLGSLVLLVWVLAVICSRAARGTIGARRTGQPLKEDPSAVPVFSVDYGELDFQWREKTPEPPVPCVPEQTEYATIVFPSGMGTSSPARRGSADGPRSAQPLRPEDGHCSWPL

B1: cemiplimab (Catalog No. A2022, Selleckchem) (antibody, V domains shown)
VH: EVQLLESGGVLVQPGGSLRLSCAASGFTFSNFGMTWVRQAPGKGLEWVSGISGGGRDTYFADSVKGRFTISRDNSKNTLYLQMNSLKGEDTAVYYCVKWGNIYFDYWGQGTLVTVSS
VL: DIQMTQSPSSLSASVGDSITITCRASLSINTFLNWYQQKPGKAPNLLIYAASSLHGGVPSRFSGSGSGTDFTLTIRTLQPEDFATYYCQQSSNTPFTFGPGTVVDFR
EC95 [1]: 0.366 µg/mL | Scaling Factor (ratio of EC50 of PD-1 saturation to the EC50 of mAb2) [2]: 2.67
